Laboratory results from patent publication US9738884B2, “Therapeutic agent for epithelial and endothelial injury” (NIHON UNIVERSITY, priority 2012, dated 2017).

System: A431 cells
Experiment: Adhesion of A431 cells to the substrate, cells removed when the culture dish was shaken (Example 2)
Assay type: cell-based
Details: 1 pmol/ml, 96-well culture dish
Protocol: FIG. 2 is a graph showing the results of Example 2 of the present application. The numerical value of the vertical axis indicates the number of cells removed from the bottom surface when a culture dish was shaken.
A portion in the entire-length F9 (F9(47-471)), which has an activity of inducing spread of cells on a substrate, was determined using an ability to adhere to the substrate as an indicator. […] Thereafter, an F9 portion having an action to inhibit the aforementioned inhibitory action was examined under conditions in which a culture was performed at 37° C. for 24 hours and the culture dish was then shaken on a shaker. It is to be noted that F9(47-191) is a peptide consisting of amino acids at positions 47 to 191 in the amino acid sequence shown in SEQ ID NO: 8, and that F9(192-202) is a peptide consisting of amino acids at positions 192 to 202 in the amino acid sequence shown in SEQ ID NO: 8. […] Each of the numerical values (on the vertical axis) in the graph of FIG. 2 is indicated as a mean±SD (**: P<0.01). In addition, in FIG. 2, the term “47-191” indicates the conditions in which F9(47-191) was added, and the terms “47-471,” “192-236,” “192-216,” and “192-202” indicate the results obtained in the case of adding F9(47-471), F9(192-236), F9(192-216), and F9(192-202), respectively.

B1: F9(47-191): peptide consisting of amino acids at positions 47 to 191 of SEQ ID NO: 8 (mouse F9) (protein, listed as Mus musculus)
chain: YNSGKLEEFVRGNLERECIEERCSFEEAREVFENTEKTTEFWKQYVDGDQCESNPCLNGGICKDDISSYECWCQVGFEGRNCELDATCNIKNGRCKQFCKNSPDNKVICSCTEGYQLAEDQKSCEPTVPFPCGRASISYSSKKIT
  action on adhesion between the cells and the substrate: action to inhibit adhesion between the cells and the substrate
